Patent publication US20250270737A1, “Antibodies That Bind GLP1R” (Twist Bioscience Corporation, priority 2019, published 2025)

Assays:
[1] = target: GLP1R (Homo sapiens, UniProt P43220); experiment: Binding assay with flow cytometry on flag-GLP1R-GFP expressing CHO cells (CHO-GLP1R); settings: 100 nM IgG
Description: (§1) Briefly, flag-GLP1R-GFP expressing CHO cells (CHO-GLP1R) and CHO-parent cells were incubated with 100 nM IgG for 1 hour on ice, washed three times and incubated with Alexa 647 conjugated goat-anti-human antibody (1:200) for 30 minutes on ice, followed by three washes. All incubations and washes were performed in buffer containing PBS and 0.5% BSA. For titrations, IgG was serially diluted 1:3 starting from 100 nM. […] Analyses of binding assays with IgG titrations presented as binding curves plotting IgG concentrations against MFI (mean fluorescence intensity) are seen in FIGS. 15A-15H. Flow cytometry data of binding assays presented as dot plots with 100 nM IgG are seen in FIGS. 16A-16I.
(§2) The GLP1R IgGs were then assayed in binding assays coupled to flow cytometry analysis using similar methods as described in Example 12. Briefly, stably expressing Flag-GLP1R-GFP CHO cells or CHO-parent cells were incubated with primary IgG (100 nM or 1:3 titrations). Secondary antibody incubation involved Alexa 647 conjugated goat-anti-human IgG. Flow cytometry measured the GFP signal against the Alexa 647 signal to identify IgGs that specifically bound to the target (GLP1R).

[2] = tested on: CHO-parent cells; experiment: Binding assay with flow cytometry on CHO-parent cells; settings: 100 nM IgG
Description: as §1, §2

[3] = Thermal ramp stability (Tm and Tagg), UNcle platform; type: physicochemical
Description: The GLP1R IgGs were characterized for thermal ramp stability (Tm and Tagg). The UNcle platform was used to characterize the IgGs and the data is seen in Table 21.

Chain of GLP1R (P43220 24-463): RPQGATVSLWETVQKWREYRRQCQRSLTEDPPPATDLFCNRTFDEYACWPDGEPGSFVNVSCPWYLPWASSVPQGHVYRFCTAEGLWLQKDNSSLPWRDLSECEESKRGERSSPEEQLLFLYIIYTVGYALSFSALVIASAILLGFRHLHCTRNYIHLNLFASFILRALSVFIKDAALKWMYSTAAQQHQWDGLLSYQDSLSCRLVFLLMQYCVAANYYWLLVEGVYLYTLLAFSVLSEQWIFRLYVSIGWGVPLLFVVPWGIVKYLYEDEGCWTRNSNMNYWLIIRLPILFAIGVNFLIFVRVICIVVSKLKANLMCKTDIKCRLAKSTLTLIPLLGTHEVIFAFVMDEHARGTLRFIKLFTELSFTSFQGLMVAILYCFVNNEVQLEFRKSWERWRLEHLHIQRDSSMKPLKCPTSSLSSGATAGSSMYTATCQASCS

Molecule | binding to CHO-GLP1R [1] | other results
GLP1R-238: GLP1R scFv clone reformatted to IgG2; CDR-H3 SEQ ID NO 2296, heavy 2303, light 2310 (antibody) heavy: MEWSWVFLFFLSVTTGVHSQVQLVQSGAEVKKPGSSVKVSCKASGGSFSSHAISWVRQAPGQGLEWMGGIIPIFGAPNYAQKFQGRVTITADESTSTAYMELSSLRSEDTAVYYCARANQHFSQAGRAARVPGPSSSLGPRGYHYYGMDVWGQGTLVTVSSASASTKGPSVFPLAPCSRSTSESTAALGCLVKDYFPEPVTVSWNSGALTSGVHTFPAVLQSSGLYSLSSVVTVPSSNFGTQTYTCNVDHKPSNTKVDKTVERKCCVECPPCPAPPVAGPSVFLFPPKPKDTLMISRTPEVTCVVVDVSHEDPEVQFNWYVDGVEVHNAKTKPREEQFNSTFRVVSVLTVVHQDWLNGKEYKCKVSNKGLPAPIEKTISKTKGQPREPQVYTLPPSREEMTKNQVSLTCLVKGFYPSDIAVEWESNGQPENNYKTTPPMLDSDGSFFLYSKLTVDKSRWQQGNVFSCSVMHEALHNHYTQKSLSLSPG light: MSVPTQVLGLLLLWLTDARCQSVLTQPPSVSAAPGQKVTISCSGSTSNIANNYVSWYQQLPGTAPKLLIYANNRRPSGIPDRFSGSKSGTSATLGITGLQTGDEADYYCGAWDVRLDVGVFGGGTKLTVLGQPKAAPSVTLFPPSSEELQANKATLVCLISDFYPGAVTVAWKADSSPVKAGVETTTPSKQSNNKYAASSYLS | found to bind to CHO-GLP1R | binding to CHO-parent cells versus CHO-GLP1R (specificity) [2]: bound equally to CHO-GLP1R and CHO-parent cells
GLP1R-243: GLP1R scFv clone reformatted to IgG2; CDR-H3 SEQ ID NO 2301, heavy 2308, light 2315 (antibody) heavy: MEWSWVFLFFLSVTTGVHSQVQLVQSGAEVKKPGSSVKVSCKASGGTFSTYGINWVRQAPGQGLEWMGGIIPIFGTANYAQKFQGRVTITADESTSTAYMELSSLRSEDTAVYYCARANQHFFGKGDNLAARDFINWLIQTKITDGSNPGYHYYGMDVWGQGTLVTVSSASASTKGPSVFPLAPCSRSTSESTAALGCLVKDYFPEPVTVSWNSGALTSGVHTFPAVLQSSGLYSLSSVVTVPSSNFGTQTYTCNVDHKPSNTKVDKTVERKCCVECPPCPAPPVAGPSVFLFPPKPKDTLMISRTPEVTCVVVDVSHEDPEVQFNWYVDGVEVHNAKTKPREEQFNSTFRVVSVLTVVHQDWLNGKEYKCKVSNKGLPAPIEKTISKTKGQPREPQVYTLPPSREEMTKNQVSLTCLVKGFYPSDIAVEWESNGQPENNYKTTPPMLDSDGSFFLYSKLTVDKSRWQQGNVFSCSVMHEALHNHYTQKSLSLSPG light: MSVPTQVLGLLLLWLTDARCQSVLTQPPSVSAAPGQKVTISCSGSRSNIGKNYVSWYQQLPGTAPKLLIYENNERPSGIPDRFSGSKSGTSATLGITGLQTGDEADYYCSSYTTSNTQVFGGGTKLTVLGQPKAAPSVTLFPPSSEELQANKATLVCLISDFYPGAVTVAWKADSSPVKAGVETTTPSKQSNNKYAASSYLSLTPEQWKSHRSYSCQVTHEGSTVEKTVAPTECS | found to bind to CHO-GLP1R | –
GLP1R-244: GLP1R scFv clone reformatted to IgG2; CDR-H3 SEQ ID NO 2302, heavy 2309, light 2316 (antibody) heavy: MEWSWVFLFFLSVTTGVHSQVQLVQSGAEVKKPGSSVKVSCKASGGTFSSYAISWVRQAPGQGLEWMGGIIPIFGTANYAQKFQGRVTITADESTSTAYMELSSLRSEDTAVYYCARANQHFAATGAGEGQAAKEFIAWLVKGRVEIGYHYYGMDVWGQGTLVTVSSASASTKGPSVFPLAPCSRSTSESTAALGCLVKDYFPEPVTVSWNSGALTSGVHTFPAVLQSSGLYSLSSVVTVPSSNFGTQTYTCNVDHKPSNTKVDKTVERKCCVECPPCPAPPVAGPSVFLFPPKPKDTLMISRTPEVTCVVVDVSHEDPEVQFNWYVDGVEVHNAKTKPREEQFNSTFRVVSVLTVVHQDWLNGKEYKCKVSNKGLPAPIEKTISKTKGQPREPQVYTLPPSREEMTKNQVSLTCLVKGFYPSDIAVEWESNGQPENNYKTTPPMLDSDGSFFLYSKLTVDKSRWQQGNVFSCSVMHEALHNHYTQKSLSLSPG light: MSVPTQVLGLLLLWLTDARCQSVLTQPPSVSAAPGQKVTISCSGSSSNIGNNVVSWYQQLPGTAPKLLIYDNDKRRSGIPDRFSGSKSGTSATLGITGLQTGDEADYYCGSWDTSLSVWVFGGGTKLTVLGQPKAAPSVTLFPPSSEELQANKATLVCLISDFYPGAVTVAWKADSSPVKAGVETTTPSKQSNNKYAASSYLSLTPEQWKSHRSYSCQVTHEGSTVEKTVAPTECS | found to bind to CHO-GLP1R | –
GLP1R-242: GLP1R scFv clone reformatted to IgG2; CDR-H3 SEQ ID NO 2300, heavy 2307, light 2314 (antibody) heavy: MEWSWVFLFFLSVTTGVHSQVQLVQSGAEVKKPGSSVKVSCKASGGTFSSYEISWVRQAPGQGLEWMGGIIPILGIANYAQKFQGRVTITADESTSTAYMELSSLRSEDTAVYYCAKHMSMQADTGTFTSDVSSYLEGQAAKEFIAWLVKGEFSSRADLVGDAFDVWGQGTLVTVSSASASTKGPSVFPLAPCSRSTSESTAALGCLVKDYFPEPVTVSWNSGALTSGVHTFPAVLQSSGLYSLSSVVTVPSSNFGTQTYTCNVDHKPSNTKVDKTVERKCCVECPPCPAPPVAGPSVFLFPPKPKDTLMISRTPEVTCVVVDVSHEDPEVQFNWYVDGVEVHNAKTKPREEQFNSTFRVVSVLTVVHQDWLNGKEYKCKVSNKGLPAPIEKTISKTKGQPREPQVYTLPPSREEMTKNQVSLTCLVKGFYPSDIAVEWESNGQPENNYKTTPPMLDSDGSFFLYSKLTVDKSRWQQGNVFSCSVMHEALHNHYTQKSLSLSPG light: MSVPTQVLGLLLLWLTDARCQSVLTQPPSVSAAPGQKVTISCSGSSSNIENNDVSWYQQLPGTAPKLLIYGNDQRPSGIPDRFSGSKSGTSATLGITGLQTGDEADYYCGTWDNTLSAGVFGGGTKLTVLGQPKAAPSVTLFPPSSEELQANKATLVCLISDFYPGAVTVAWKADSSPVKAGVETTTPSKQSNNKYAASSYLSLTPEQWKSHRSYSCQVTHEGSTVEKTVAPTECS | found to bind to CHO-GLP1R | –

The next lines start with results.

binding to CHO-GLP1R [1] | Molecule | other results
found to bind to CHO-GLP1R | GLP1R-240: GLP1R scFv clone reformatted to IgG2; CDR-H3 SEQ ID NO 2298, heavy 2305, light 2312 (antibody) heavy: MEWSWVFLFFLSVTTGVHSQVQLVQSGAEVKKPGSSVKVSCKASGGTFNNYGISWVRQAPGQGLEWMGGIIPVFGTANYAQKFQGRVTITADESTSTAYMELSSLRSEDTAVYYCARDMYYDFFGLGTFTSDVSSYLEGQAAKEFIAWLVKGVSPEVVPADDAFDIWGQGTLVTVSSASASTKGPSVFPLAPCSRSTSESTAALGCLVKDYFPEPVTVSWNSGALTSGVHTFPAVLQSSGLYSLSSVVTVPSSNFGTQTYTCNVDHKPSNTKVDKTVERKCCVECPPCPAPPVAGPSVFLFPPKPKDTLMISRTPEVTCVVVDVSHEDPEVQFNWYVDGVEVHNAKTKPREEQFNSTFRVVSVLTVVHQDWLNGKEYKCKVSNKGLPAPIEKTISKTKGQPREPQVYTLPPSREEMTKNQVSLTCLVKGFYPSDIAVEWESNGQPENNYKTTPPMLDSDGSFFLYSKLTVDKSRWQQGNVFSCSVMHEALHNHYTQKSLSLSPG light: MSVPTQVLGLLLLWLTDARCQSVLTQPPSVSAAPGQKVTISCSGSSSSIGNNYVSWYQQLPGTAPKLLIYANNKRPSGIPDRFSGSKSGTSATLGITGLQTGDEADYYCATWSSSPRGWVFGGGTKLTVLGQPKAAPSVTLFPPSSEELQANKATLVCLISDFYPGAVTVAWKADSSPVKAGVETTTPSKQSNNKYAASSYLSLTPEQWKSHRSYSCQVTHEGSTVEKTVAPTECS | –
found to bind to CHO-GLP1R | GLP1R-241: GLP1R scFv clone reformatted to IgG2; CDR-H3 SEQ ID NO 2299, heavy 2306, light 2313 (antibody) heavy: MEWSWVFLFFLSVTTGVHSQVQLVQSGAEVKKPGSSVKVSCKASGGTFSDYAISWVRQAPGQGLEWMGGIIPIFGTTNYAQKFQGRVTITADESTSTAYMELSSLRSEDTAVYYCAKHMSMQGSVAGGTFTSDVSSYLEGQAAKEFIAWLVKGGPSFIRADLVGDAFDVWGQGTLVTVSSASASTKGPSVFPLAPCSRSTSESTAALGCLVKDYFPEPVTVSWNSGALTSGVHTFPAVLQSSGLYSLSSVVTVPSSNFGTQTYTCNVDHKPSNTKVDKTVERKCCVECPPCPAPPVAGPSVFLFPPKPKDTLMISRTPEVTCVVVDVSHEDPEVQFNWYVDGVEVHNAKTKPREEQFNSTFRVVSVLTVVHQDWLNGKEYKCKVSNKGLPAPIEKTISKTKGQPREPQVYTLPPSREEMTKNQVSLTCLVKGFYPSDIAVEWESNGQPENNYKTTPPMLDSDGSFFLYSKLTVDKSRWQQGNVFSCSVMHEALHNHYTQKSLSLSPG light: MSVPTQVLGLLLLWLTDARCQSVLTQPPSVSAAPGQKVTISCSGISSNIGNNYVSWYQQLPGTAPKLLIYDDDQRPSGIPDRFSGSKSGTSATLGITGLQTGDEADYYCGTWDNILSAAVFGGGTKLTVLGQPKAAPSVTLFPPSSEELQANKATLVCLISDFYPGAVTVAWKADSSPVKAGVETTTPSKQSNNKYAASSYLSLTPEQWKSHRSYSCQVTHEGSTVEKTVAPTECS | Average Tagg 266 [3]: 65.9 °C; Average Tm2 [3]: 75.7 °C; Average Tml [3]: 68.2 °C
